Data on 1 molecule can be found in US20160053011A1 (ABCLON, published 2016).

A word on the Kd: it is the constant that tells how readily two partners part at equilibrium. One may read the koff as the rate constant with which the complex falls apart. What is called kon is the second-order rate constant of association.

The target of assay [1] is ECD. Briefly: ELISA on HER2 ECD, absorbance; antibody concentration not given.
In assay [2] the target is T1, EGFR-ECD-Fc (human, UniProt P00533 25-645).
T1 construct: extracellular domain; Produced in the same manner as HER2-ECD-Fc; not shown: hinge region of human IgG1 and Fc portion (CH2-CH3), as in HER2-ECD-Fc
Briefly: ELISA on extracellular domains of ErbB family proteins, absorbance; antibody concentration not given. (In general: ELISA stands for enzyme-linked immunosorbent assay.)

Assay [3] has as its target T2, HER4 extracellular domain (R&D Systems, #1131-ER-050) (human, UniProt Q15303 26-651).
T2 construct: extracellular domain; Purchased
T2 sequence (looked up): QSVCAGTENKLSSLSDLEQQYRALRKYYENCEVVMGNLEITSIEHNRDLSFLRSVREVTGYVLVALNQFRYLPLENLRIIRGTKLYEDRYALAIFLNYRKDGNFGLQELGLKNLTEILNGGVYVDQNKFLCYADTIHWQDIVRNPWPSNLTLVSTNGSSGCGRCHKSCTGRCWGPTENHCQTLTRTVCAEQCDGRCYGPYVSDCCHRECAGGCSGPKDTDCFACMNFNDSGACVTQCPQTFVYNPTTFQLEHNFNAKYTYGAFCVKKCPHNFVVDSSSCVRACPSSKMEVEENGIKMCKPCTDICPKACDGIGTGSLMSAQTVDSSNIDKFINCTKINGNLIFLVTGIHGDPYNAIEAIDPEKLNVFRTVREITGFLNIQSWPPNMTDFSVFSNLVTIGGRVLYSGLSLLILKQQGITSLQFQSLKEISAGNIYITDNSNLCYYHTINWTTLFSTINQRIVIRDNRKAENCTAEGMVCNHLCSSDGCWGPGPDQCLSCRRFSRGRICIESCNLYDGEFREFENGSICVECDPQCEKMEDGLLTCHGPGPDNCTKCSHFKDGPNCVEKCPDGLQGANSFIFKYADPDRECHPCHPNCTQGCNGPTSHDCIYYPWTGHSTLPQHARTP
The assay is described as above.

Assay [4] deals with T3, HER3 extracellular domain (R&D Systems, #348-RB-050) (human, UniProt P21860 20-643).
T3 construct: extracellular domain; Purchased
The assay is described as above.

Assay [5] concerns the target T4, HER2-ECD-His protein (human, UniProt P04626 23-652).
T4 construct: extracellular domain; not shown: His tag
Briefly: SPR (Biacore 3000), antibody captured by anti-human IgG, HER2-ECD-His analyte, 1:1 model. How it is done:
All the experiments were performed using Biacore 3000. First, the goat antibodies to human IgG were immobilized at a concentration of 1000 RU to a CM5 sensor chip via an amine coupling method. […] Before binding to HER2-ECD-His protein, each antibody was bound at a rate of 50 μL/min for 180 seconds, and allowed the buffer to flow thereonto for stabilization purpose. […] The sensor chip was recycled by allowing 10 mM Glycine-HCl (pH 1.5) buffer to flow thereonto. All the sensorgram data was analyzed via a 1:1 interaction model using BIAevaluation software.
In general terms: SPR reads the build-up and loss of mass on a sensor chip optically.

In assay [6] the target is T5, Mouse (mouse, UniProt P70424).
T5 construct: extracellular domain; also called HER2 extracellular domain of a mouse (Sino Biological Inc., #50714-M08H); mouse HER2
Briefly: ELISA on HER2 extracellular domains of five species, absorbance; antibody concentration not given.

Assay [7] has as its target T6, HER2 extracellular domain of a rhesus monkey (Sino Biological Inc., #90020-K08H) (rhesus monkey, UniProt I0FM22 23-652).
T6 construct: extracellular domain; Purchased; also called rhesus monkey HER2
The description is as above.

Assay [8] deals with T7, Rat (rat, UniProt P06494).
T7 construct: extracellular domain; also called HER2 extracellular domain of a rat (Sino Biological Inc., #80079-R08H); rat HER2
Described as above.

Assay [9] deals with T8, Domain2 (human, UniProt P04626).
T8 construct: single sub-domain of the extracellular domain; produced in animal cells, purified with Protein-A; also called HER2 sub-domain 2 with hinge region and Fc region of human IgG1
Briefly: ELISA on HER2 sub-domain Fc fusions, absorbance; antibody concentration not given.

Assay [10] has as its target T9, Domain3 (human, UniProt P04626).
T9 construct: single sub-domain of the extracellular domain; produced in animal cells, purified with Protein-A; also called HER2 sub-domain 3 with hinge region and Fc region of human IgG1
The description is as above.

In assay [11] the target is T10, Domain1 (human, UniProt P04626).
T10 construct: single sub-domain of the extracellular domain; produced in animal cells, purified with Protein-A; also called HER2 sub-domain 1 with hinge region and Fc region of human IgG1
The description is as above.

T5 sequence (P70424 23-653): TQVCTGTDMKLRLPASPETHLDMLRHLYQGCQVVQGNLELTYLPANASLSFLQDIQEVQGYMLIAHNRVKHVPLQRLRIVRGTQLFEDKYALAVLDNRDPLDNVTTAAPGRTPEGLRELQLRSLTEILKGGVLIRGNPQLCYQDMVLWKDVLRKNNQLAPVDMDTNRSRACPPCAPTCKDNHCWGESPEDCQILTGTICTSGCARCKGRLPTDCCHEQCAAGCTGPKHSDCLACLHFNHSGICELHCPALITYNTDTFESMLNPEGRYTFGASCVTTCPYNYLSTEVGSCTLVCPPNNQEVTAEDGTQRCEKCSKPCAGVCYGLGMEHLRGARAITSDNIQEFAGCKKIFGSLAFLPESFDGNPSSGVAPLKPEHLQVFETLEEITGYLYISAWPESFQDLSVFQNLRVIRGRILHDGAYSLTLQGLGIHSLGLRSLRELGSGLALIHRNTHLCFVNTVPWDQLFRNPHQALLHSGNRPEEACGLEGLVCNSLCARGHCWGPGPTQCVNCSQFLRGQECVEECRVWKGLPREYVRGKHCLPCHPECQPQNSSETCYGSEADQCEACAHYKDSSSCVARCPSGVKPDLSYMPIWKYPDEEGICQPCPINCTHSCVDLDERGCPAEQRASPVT
T7 sequence (P06494 23-654): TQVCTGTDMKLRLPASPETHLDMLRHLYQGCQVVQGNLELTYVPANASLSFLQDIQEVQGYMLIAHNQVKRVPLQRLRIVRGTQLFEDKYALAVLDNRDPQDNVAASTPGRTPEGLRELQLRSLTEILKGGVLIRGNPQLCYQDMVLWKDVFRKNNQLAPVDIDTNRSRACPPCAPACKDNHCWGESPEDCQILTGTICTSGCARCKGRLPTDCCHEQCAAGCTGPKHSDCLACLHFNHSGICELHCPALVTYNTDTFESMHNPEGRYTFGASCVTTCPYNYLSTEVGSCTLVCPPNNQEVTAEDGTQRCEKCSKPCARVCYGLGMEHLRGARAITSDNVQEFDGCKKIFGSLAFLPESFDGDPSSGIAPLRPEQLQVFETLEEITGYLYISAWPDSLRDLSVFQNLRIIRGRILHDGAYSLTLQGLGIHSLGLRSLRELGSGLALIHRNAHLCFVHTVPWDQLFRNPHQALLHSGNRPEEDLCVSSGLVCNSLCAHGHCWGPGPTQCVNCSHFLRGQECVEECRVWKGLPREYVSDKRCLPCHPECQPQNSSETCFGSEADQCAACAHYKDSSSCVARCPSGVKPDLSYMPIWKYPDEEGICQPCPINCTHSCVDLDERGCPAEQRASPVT

B1: 1E11 antibody (antibody, V domains shown)
VH: EVKLVESGGGLVQPGGSLKLSCAASGFTFSSYTMSWVRQTPEKRLEWVAYISNGGGSTYYPDTVKGRFTISRDNAKNTLYLQMSSLKSEDTAMYYCARHLGGTASFDYWGQGTTVTVSS
VL: DIQMTQSPASQSASLGESVTITCLASQTIGTWLAWYQQKPGKSPQLLIYVATSLADGVPSRFSGSGSGTKFSFKISSLQAEDFVSYYCQQLYSTPWTFGGGTKLELK
notes: Mouse variable regions; also called 1E11 clones; chimeric 1E11
As for B1, the binding result was “binds” in assay [1]; “no binding” in assay [2]; “no binding” in [3]; “no binding” in [4]; “no binding” in assay [6]; “binds” in assay [7]. Moreover, the binding result in assay [8], in assay [9], in assay [10] and in assay [11] was “no binding” each time. In [5], this molecule had a Kd of 16 nM. Besides, in assay [5], the koff amounted to 0.00047 s⁻¹. In addition, the kon in [5] is 30000 M⁻¹ s⁻¹.
